The results in this text go back to PMC4070910, “Cathepsin S Signals via PAR2 and Generates a Novel Tethered Ligand Receptor Agonist” (PLoS ONE, 2014).

Data set [1] can be described thus: Specific activity of recombinant cathepsin S. The data set is classed as biochemical. Particulars: Z-VVR-AMC fluorimetric and Z-FR-pNA colorimetric assays. On the procedure:
Recombinant human cathepsin S was produced as follows. The human cathepsin S proprotein coding region was isolated by PCR using the forward and reverse primers […] CCTG and […] and a template of plasmid DNA containing the entire coding sequence of human cathepsin S. The PCR product was cut with Nco I and Xho I, and cloned into the pTYB4 expression vector from New England Biolabs for expression in E.coli. Cells were grown in LB medium induced with 0.3 mM IPTG, harvested by centrifugation, resuspended in lysis buffer A (0.5 M NaCl, 0.05 M Tris, 5 mM EDTA, pH 8.0) and lysed in a French press. The lysate was centrifuged and the protein was found predominantly in inclusion bodies which were dissolved in buffer B (10 mM DTT and 8 M urea), and refolded in the presence of buffer B containing 0.7 M L-arginine, 0.01 M glutathione, 0.001 M glutathione disulfide, and 0.005 M EDTA as described. The refolded procathepsin S was concentrated by Minimate Concentrator (Pall Corporation) and washed three times with buffer A. It was activated after adjusting to pH 4.5 with acetic acid, adding DTT to 5 µM and incubating at 37°C for 3 hours. […] The specific activity of cathepsin S was assayed using Z-VVR-AMC in fluorimetric and Z-FR-pNA in colorimetric assays[22] and determined to be 10,000 mU/mg protein.

In data set [2] the test system is PKC (βII Ser660) phosphorylation in PAR2-transfected HeLa cells. The data set is described as follows: Western blot for p-PKC (Ser660) in PAR2-transfected HeLa cells. Particulars: 10 minutes, room temperature; SLIGRL 10 µM, SLIGKVDGTS 10 µM, KVDGTS 100 µM, cathepsin S 1 µM. The data set is classed as cell-based, human. On the procedure:
HeLa cells were transfected with PAR2 plasmid DNA as described above. Untransfected HeLa cells were plated as a control. Forty-eight hours after transfection, cells were rinsed with PBS three times. Transfected HeLa cells were incubated with either SLIGRL (10 µM), SLIGKVDGTS (10 µM), KVDGTS (100 µM), or cathepsin S (1 µM) at room temperature for 10 minutes. Untransfected HeLa cells were treated with SLIGRL (10 µM) in a similar manner. A subset of transfected HeLa cells remained untreated and served as a negative control. After incubation, cells were harvested, pelleted and lysed by sequential freeze-thaw cycles. Cell lysates were centrifuged at 4°C for 15 minutes. Supernatants were collected and protein concentrations were determined by Bradford assay. Equal amounts of cell lysates were loaded onto NuPAGE Novex Bis-Tris mini gels, electrophoresed and transferred to nitrocellulose membranes using standard protocols. The blot was first probed with rabbit anti-phospho-PKC (βII Ser660) antibody (Cell Signalling Technology, Danvers, MA), and later reprobed with a mouse anti-actin antibody to identify the control actin band at 42 kDa. Primary antibodies were labeled with HRP-conjugated donkey anti-rabbit antibody and HRP-conjugated donkey anti-mouse antibody, respectively, followed by detection of the position of the antigen on the blot.
For orientation: Immunoblotting shows a protein as a band on a membrane.

The subject of a further data set is human PAR2. Description: Fura-2 calcium imaging in HeLa cells transfected with PAR2 cDNA. The data set is classed as cell-based. Here is the method: Human PAR2 cDNA was cloned as an Xho I-Hind III fragment (1206 bp) into pcDNA3.1(−). 10 µg of DNA were diluted into 0.5 ml of DMEM and mixed with 0.5 ml of DMEM containing 10 µl of Lipofectamine 2000 transfection reagent and incubated at room temperature for 20 minutes. HeLa cells were grown to confluence, trypsinized and 1×10^6 cells were pelleted in a 15 ml tube by centrifugation at 1000 rpm for 5 minutes. The DMEM-Lipofectamine 2000-DNA mixture (1 ml) was added to the cell pellet, resuspended gently and incubated at room temperature for 20 minutes. Four ml of complete DMEM with 10% FBS were added to the tube, mixed by inverting the tube several times, plated into a 96-well glass bottom plate at 20,000 cells/well, and placed in a 37°C CO2 incubator. HeLa cells transfected with vector alone or salmon sperm DNA (shown in the figures) were plated as a control. The medium was aspirated two days after transfection. Fura-2 was used as a ratiometric calcium-sensitive indicator as follows. 100 µl of complete DMEM containing 2 µM of Fura-2 were added to each well and left at room temperature in the dark for 1 hr. Following loading with Fura-2, the medium was aspirated and replaced with 90 µl of HEPES-buffered saline (20 mM HEPES, 115 mM NaCl, 5.4 mM KCl, 2 mM CaCl2, 0.8 mM MgCl2, 13.8 mM glucose, pH 7.4).
Imaging was performed using a Zeiss Axiovert 200 M microscope platform equipped with a flipping filter wheel for ratiometric imaging. Axiovision software, version 4.6 was used for image analysis of the cells which were excited at 340 nm and 380 nm. Ten µl of peptide agonist were added at 20 seconds after the start of the excitation procedure. Images were taken every 5 seconds, including at zero time, during a 3-minute period or longer if required. The software later analyzed all images taken during each excitation period. Typically, ratiometric changes were measured in 10–20 cells in each image. An average of the fluorescence of the cells in each image was calculated and plotted against time in seconds.
HeLa cells transfected with PAR2 cDNA were subjected to ratiometric imaging as described above with PAR2 peptides, SLIGRL, KVDGTS, and SLIGKVDGTS in addition to the reverse peptides LRGILS and STGDVK at concentrations from 1 nM - 1 mM. Each of the concentration-dependent readings was performed in triplicate. Maximum intensities at each of the dilutions were calculated and plotted against concentration using GraphPad/PRISM software version 6.0 (Irvine, CA). Error bars represent +/−SEM.

B1: cathepsin S: Recombinant human cathepsin S, cysteine protease, expressed in E.coli, refolded and activated (protein, UniProt P25774 115-331, looked up)
Cathepsin S: LPDSVDWREKGCVTEVKYQGSCGACWAFSAVGALEAQLKLKTGKLVSLSAQNLVDCSTEKYGNKGCNGGFMTTAFQYIIDNKGIDSDASYPYKAMDQKCQYDSKYRAATCSKYTELPYGREDVLKEAVANKGPVSVGVDARHPSFFLYRSGVYYEPSCTQNVNHGVLVVGYGDLNGKEYWLVKNSWGHNFGEEGYIRMARNKGNHCGIASFPSYPEI
As for B1, the specific activity in data set [1] is on record as 10,000 mU/mg protein. In addition, in data set [2], the “PKC Ser660 phosphorylation (in words)” value is recorded as “induce PKC Ser660 phosphorylation”. In addition, the “effect as first agent on calcium response to second agent (in words)” value in the data set with human PAR2 (PAR2-transfected HeLa, KVDGTS 100 µM, cathepsin S 2 µM, papain 2 µM, trypsin 10 nM, second agent after up to 60 minutes, room temperature) is on record as “failed to induce a calcium response at any time up to 60 minutes”. For the same molecule, the “calcium response to the substance as second agent after KVDGTS (in words)” value in the data set on human PAR2 (PAR2-transfected HeLa, second agent after 2, 3, 5, 10, 30 and 60 minutes (cathepsin S), papain 2 µM, trypsin 10 nM, room temperature) was “present but reduced”. Further, in the data set with human PAR2 (single-cell imaging, KVDGTS 100 µM, SLIGRL 10 µM, IGKVDG 100 µM, cathepsin S 2 µM, room temperature), the “calcium response (in words)” value was “able to stimulate native PAR2 and PAR2M1”. For the same molecule, the “concentration at which active/effective” value in the data set with human PAR2 (summary of these studies (discussion)) was in the range of 1 to 2 µM.
